Test results as given in patent JP2014141434A (dated 2014).

T1: ヒトROBO3 (human, UniProt Q96MS0 21-1386)
T1 construct: also called hROBO3; pCI−hROBO3
T1 sequence: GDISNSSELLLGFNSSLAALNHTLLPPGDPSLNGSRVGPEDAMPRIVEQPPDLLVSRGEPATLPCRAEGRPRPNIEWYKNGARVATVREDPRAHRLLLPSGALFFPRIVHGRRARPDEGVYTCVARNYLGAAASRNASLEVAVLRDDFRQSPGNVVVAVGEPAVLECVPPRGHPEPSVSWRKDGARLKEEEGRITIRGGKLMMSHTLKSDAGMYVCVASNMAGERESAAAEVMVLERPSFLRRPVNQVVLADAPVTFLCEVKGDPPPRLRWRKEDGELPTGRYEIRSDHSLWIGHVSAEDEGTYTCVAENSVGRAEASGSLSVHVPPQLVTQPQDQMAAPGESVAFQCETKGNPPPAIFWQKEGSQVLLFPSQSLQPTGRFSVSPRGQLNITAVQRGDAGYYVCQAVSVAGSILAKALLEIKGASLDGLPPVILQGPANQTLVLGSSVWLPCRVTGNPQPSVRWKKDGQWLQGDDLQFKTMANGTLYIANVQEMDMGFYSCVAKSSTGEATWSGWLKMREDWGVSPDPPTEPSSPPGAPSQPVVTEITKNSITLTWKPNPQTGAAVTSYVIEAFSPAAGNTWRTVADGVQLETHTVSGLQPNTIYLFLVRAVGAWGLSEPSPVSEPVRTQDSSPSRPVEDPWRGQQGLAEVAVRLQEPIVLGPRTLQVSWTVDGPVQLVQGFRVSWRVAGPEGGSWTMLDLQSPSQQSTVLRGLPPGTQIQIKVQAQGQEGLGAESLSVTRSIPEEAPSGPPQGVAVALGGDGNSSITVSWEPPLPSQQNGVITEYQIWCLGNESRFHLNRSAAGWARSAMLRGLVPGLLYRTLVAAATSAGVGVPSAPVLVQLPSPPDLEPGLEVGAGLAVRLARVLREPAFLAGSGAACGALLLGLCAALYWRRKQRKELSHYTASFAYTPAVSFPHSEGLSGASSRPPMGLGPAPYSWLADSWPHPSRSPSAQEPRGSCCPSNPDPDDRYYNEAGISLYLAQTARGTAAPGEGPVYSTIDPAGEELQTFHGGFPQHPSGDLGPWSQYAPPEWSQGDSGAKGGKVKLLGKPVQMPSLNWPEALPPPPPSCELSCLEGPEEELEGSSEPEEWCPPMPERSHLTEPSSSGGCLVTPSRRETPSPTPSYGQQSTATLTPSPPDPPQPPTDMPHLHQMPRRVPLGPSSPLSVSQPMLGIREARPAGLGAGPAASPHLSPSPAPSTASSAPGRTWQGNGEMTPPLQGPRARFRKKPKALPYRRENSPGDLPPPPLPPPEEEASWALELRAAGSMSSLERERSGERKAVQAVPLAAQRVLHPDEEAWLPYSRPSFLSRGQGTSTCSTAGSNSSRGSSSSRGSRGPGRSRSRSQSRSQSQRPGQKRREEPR

T2: N末端FLAG−tag付加型カニクイザルROBO4 cynoROBO4−2 (cynomolgus monkey, UniProt Q8WZ75 28-1007 (human entry))
T2 construct: also called pCI−FLAG−cynoROBO4−2
T2 chain: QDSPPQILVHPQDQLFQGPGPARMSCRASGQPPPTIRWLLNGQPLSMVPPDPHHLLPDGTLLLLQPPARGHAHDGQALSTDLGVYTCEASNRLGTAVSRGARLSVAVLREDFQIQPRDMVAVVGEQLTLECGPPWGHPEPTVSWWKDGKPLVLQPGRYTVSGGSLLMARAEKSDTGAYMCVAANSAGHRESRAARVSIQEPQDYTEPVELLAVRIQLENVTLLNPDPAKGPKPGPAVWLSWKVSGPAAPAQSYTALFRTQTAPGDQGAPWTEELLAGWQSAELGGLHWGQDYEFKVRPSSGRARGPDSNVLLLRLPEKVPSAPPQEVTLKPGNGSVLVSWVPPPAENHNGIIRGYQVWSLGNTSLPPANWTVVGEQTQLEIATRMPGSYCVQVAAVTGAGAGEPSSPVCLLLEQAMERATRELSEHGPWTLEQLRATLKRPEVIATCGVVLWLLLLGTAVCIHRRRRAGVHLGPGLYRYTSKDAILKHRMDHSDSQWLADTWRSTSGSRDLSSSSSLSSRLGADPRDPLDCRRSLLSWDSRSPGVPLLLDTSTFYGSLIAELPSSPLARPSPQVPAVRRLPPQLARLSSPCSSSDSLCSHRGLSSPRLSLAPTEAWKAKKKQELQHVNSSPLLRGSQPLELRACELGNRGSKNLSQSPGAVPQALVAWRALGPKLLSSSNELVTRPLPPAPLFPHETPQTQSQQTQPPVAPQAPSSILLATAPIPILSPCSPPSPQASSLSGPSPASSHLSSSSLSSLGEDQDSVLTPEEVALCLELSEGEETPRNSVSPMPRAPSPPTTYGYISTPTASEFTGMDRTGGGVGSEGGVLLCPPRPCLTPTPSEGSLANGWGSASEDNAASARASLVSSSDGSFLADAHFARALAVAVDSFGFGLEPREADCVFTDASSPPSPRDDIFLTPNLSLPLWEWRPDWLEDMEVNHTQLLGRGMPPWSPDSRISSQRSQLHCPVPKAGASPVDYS


Assays:
Test in all cases: flow cytometry, transfected HEK293 cells
[1] = target: T3, N末端FLAG−tag付加型ヒトROBO1 (human, UniProt Q9Y6N7 58-1651)
T3 construct: also called hROBO1; pCI−FLAG−hROBO1

[2] = target: T1, ヒトROBO3
[3] = target: T2, N末端FLAG−tag付加型カニクイザルROBO4 cynoROBO4−2

T3 sequence (Q9Y6N7 other isoform, or with tags, fused parts or gaps): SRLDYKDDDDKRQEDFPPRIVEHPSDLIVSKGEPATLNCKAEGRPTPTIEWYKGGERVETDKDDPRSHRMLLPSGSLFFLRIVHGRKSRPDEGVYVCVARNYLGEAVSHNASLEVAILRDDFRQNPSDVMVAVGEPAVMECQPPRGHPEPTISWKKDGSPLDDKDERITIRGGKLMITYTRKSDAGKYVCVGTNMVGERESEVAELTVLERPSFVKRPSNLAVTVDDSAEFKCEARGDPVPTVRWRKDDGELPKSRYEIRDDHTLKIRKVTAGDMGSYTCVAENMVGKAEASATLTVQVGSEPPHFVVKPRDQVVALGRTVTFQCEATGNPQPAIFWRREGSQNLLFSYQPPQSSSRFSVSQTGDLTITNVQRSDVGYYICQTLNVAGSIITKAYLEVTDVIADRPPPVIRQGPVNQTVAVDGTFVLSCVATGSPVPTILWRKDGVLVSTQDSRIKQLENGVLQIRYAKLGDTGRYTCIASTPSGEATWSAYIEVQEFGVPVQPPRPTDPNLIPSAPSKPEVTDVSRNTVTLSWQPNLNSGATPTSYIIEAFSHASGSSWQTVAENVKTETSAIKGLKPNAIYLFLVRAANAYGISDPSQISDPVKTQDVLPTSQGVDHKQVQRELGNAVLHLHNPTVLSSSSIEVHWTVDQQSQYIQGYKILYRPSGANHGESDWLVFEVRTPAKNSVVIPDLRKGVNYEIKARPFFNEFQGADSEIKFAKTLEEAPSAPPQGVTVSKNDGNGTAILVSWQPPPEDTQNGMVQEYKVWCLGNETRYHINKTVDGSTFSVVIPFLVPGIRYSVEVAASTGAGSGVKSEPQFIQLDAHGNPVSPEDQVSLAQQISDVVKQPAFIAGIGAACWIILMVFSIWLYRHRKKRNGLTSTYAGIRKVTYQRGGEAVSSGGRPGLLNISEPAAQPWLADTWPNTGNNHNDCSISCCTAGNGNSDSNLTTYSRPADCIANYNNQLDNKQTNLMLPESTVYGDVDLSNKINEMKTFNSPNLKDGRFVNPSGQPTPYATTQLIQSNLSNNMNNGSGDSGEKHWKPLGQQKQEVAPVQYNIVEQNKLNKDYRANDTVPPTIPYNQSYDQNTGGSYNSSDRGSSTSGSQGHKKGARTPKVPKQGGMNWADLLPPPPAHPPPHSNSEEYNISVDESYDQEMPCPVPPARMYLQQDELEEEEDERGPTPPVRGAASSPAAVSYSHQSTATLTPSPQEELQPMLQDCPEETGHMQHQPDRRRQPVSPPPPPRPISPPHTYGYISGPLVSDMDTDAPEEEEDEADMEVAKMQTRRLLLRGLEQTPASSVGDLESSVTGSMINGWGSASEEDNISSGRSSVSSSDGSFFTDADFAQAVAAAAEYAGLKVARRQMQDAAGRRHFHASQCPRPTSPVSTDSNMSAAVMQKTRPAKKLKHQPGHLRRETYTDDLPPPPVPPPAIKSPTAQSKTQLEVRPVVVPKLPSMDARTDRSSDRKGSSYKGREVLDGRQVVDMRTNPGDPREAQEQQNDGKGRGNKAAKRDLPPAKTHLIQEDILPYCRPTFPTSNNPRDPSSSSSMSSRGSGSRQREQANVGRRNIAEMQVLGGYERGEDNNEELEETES

Binder	binding result [1]	binding result [2]	binding result [3]
抗ROBO4マウスモノクローナル抗体 MAb1 (antibody, V domains shown, Mouse IgG1 (gamma 1) / kappa from a hybridoma; The constant regions are not in the listing; also called MAb1) VH: EVQLVESGGGLVKPGGSLKLSCAASGFTFSTYAMSWVRQTPEKRLEWVATISNGGTYTYYPDSVKGRFTISRDNAENTLYLQMSSLRSEDTAMYFCARLIYYDYLDYWGHGTTLTVSS VL: DAVMTQTPLSLPVSLGDQASISCRSSQSLENSNGNTYLNWYFQKPGQSPQLLIYRVSNRFSGVLDRFSGSGSGTDFTLKISRVEAEDFGVYFCLQVTHVPWTFGGGTKLEIKR	no binding (tested: 10 μg/mL)	no binding (tested: 10 μg/mL)	–
ヒト化MAb1抗体 H−2143 (antibody, human IgG2, kappa, V domains shown, Humanised IgG2 / kappa; also called H-2143; hMAb1-H4 / hMAb1-L2) VH: EVQLVESGGGLVQPGGSLRLSCAASGFTFSTYAMSWVRQAPGKRLEWVATISQGGTYTYYPDSVKGRFTISRDNAKNTLYLQMNSLRAEDTAVYYCARLIYYDYLDYWGQGTLVTVSS VL: DIVMTQSPLSLPVTLGEPASISCRSSQSLENENKNLYLNWYLQKPGQSPQLLIYRVSNRFSGVPDRFSGSGSGTDFTLKISRVEAEDVGVYYCLQVTHVPWTFGPGTKVDIKR	no binding (tested: 10 μg/mL (method of 4)-4-2))	no binding (tested: 10 μg/mL (method of 4)-4-2))	binds
ヒト化MAb1抗体 H−1143 (antibody, human IgG2, kappa, V domains shown, Humanised IgG2 / kappa; also called H-1143; hMAb1-H2 / hMAb1-L2) VH: EVQLVESGGGLVQPGGSLRLSCAASGFTFSTYAMSWVRQAPGKGLEWVATISQGGTYTYYPDSVKGRFTISRDNAKNTLYLQMNSLRAEDTAVYYCARLIYYDYLDYWGQGTLVTVSS VL: DIVMTQSPLSLPVTLGEPASISCRSSQSLENENKNLYLNWYLQKPGQSPQLLIYRVSNRFSGVPDRFSGSGSGTDFTLKISRVEAEDVGVYYCLQVTHVPWTFGPGTKVDIKR	no binding (tested: 10 μg/mL (method of 4)-4-2))	no binding (tested: 10 μg/mL (method of 4)-4-2))	binds
ヒト化MAb1抗体 H−2140 (antibody, human IgG2, kappa, V domains shown, Humanised IgG2 / kappa; also called H-2140; hMAb1-H4 / hMAb1-L1) VH: EVQLVESGGGLVQPGGSLRLSCAASGFTFSTYAMSWVRQAPGKRLEWVATISQGGTYTYYPDSVKGRFTISRDNAKNTLYLQMNSLRAEDTAVYYCARLIYYDYLDYWGQGTLVTVSS VL: DIVMTQSPLSLPVTLGEPASISCRSSQSLENSNGNTYLNWYLQKPGQSPQLLIYRVSNRFSGVPDRFSGSGSGTDFTLKISRVEAEDVGVYYCLQVTHVPWTFGPGTKVDIKR	no binding (tested: 10 μg/mL (method of 4)-4-2))	no binding (tested: 10 μg/mL (method of 4)-4-2))	binds
